Among the data in the supplement of paper PMC10567573 are protein stability index values, retold here.

First the molecules themselves.
B1: APBB1IP (parent)
chain: SQVSMWDQRWQDHQPLLPITDVP
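Note: lentivirally expressed fusions sorted by FACS into six bins by GFP to DsRed ratio, PSI derived from sequencing read proportions per bin multiplied by bin number.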

Variants of B1 are the subject of the series. As to the kind of experiment: protein stability index of a GFP-peptide fusion (GPS, HEK-293T) (PSI 1-6); higher = more stable. To be noted: c terminus: native.
Take SQVSMGDQRWQDHQPLLPITDVP [W6G]: the protein stability index was found to be 2.95.

As for SQVSMYDQRWQDHQPLLPITDVP [W6Y], the protein stability index stood at 2.09.

Consider SQVSMIDQRWQDHQPLLPITDVP [W6I], for which the protein stability index worked out at 2.56.

As to SQVSMKDQRWQDHQPLLPITDVP [W6K], the protein stability index was 3.24.

With SQVSMEDQRWQDHQPLLPITDVP [W6E], the protein stability index was determined as 4.03.

As to SQVSMFDQRWQDHQPLLPITDVP [W6F], the protein stability index came to 2.55.

Consider SQVSMSDQRWQDHQPLLPITDVP [W6S], for which the protein stability index turned out to be 3.08.

Take SQVSMADQRWQDHQPLLPITDVP [W6A]: the protein stability index amounted to 3.27.

SQVSMWDQRWQDHQPLLPITDVD [P23D]: the protein stability index came out at 3.6.

Turning to SQVSMWDQRWQDHQPLLPITDVS [P23S], the protein stability index is 3.01.

With SQVSMWDQRWQDHQPLLPITDVR [P23R], the protein stability index is 4.33.

As for SQVSMWDQRWQDHQPLLPITDVA [P23A], the protein stability index is 2.56.

Consider SQVSMWDQRWQDHQPLLPITDVY [P23Y], for which the protein stability index worked out at 2.74.

As for SQVSMWDQRWQDHQPLLPITDVC [P23C], the protein stability index turned out to be 2.85.

For the variant SQVSMWDQRWQDHQPLLPITDVG [P23G], the protein stability index was 1.91.

As for SQVSMWDQRWQDHQPLLPITQVP [D21Q], the protein stability index amounted to 1.53.

As for SQVSMWDQRWQDHQPLLPITSVP [D21S], the protein stability index came to 1.6.

In the case of SQVSMWDQRWQDHQPLLPITHVP [D21H], the protein stability index stood at 1.75.

For the variant SQVSMWDQRWQDHQPLLPITGVP [D21G], the protein stability index was found to be 1.94.

Take SQVSMWDWRWQDHQPLLPITDVP [Q8W]: the protein stability index was 3.03.

With SQVSMWDMRWQDHQPLLPITDVP [Q8M], the protein stability index came out at 1.39.

In the case of SQVSMWDGRWQDHQPLLPITDVP [Q8G], the protein stability index stood at 2.27.

For the variant SQVSMWDFRWQDHQPLLPITDVP [Q8F], the protein stability index was 1.73.

Consider SQVSMWDIRWQDHQPLLPITDVP [Q8I], for which the protein stability index came out at 1.94.

With SQVSMWDLRWQDHQPLLPITDVP [Q8L], the protein stability index worked out at 1.86.

Take SQVSMWDTRWQDHQPLLPITDVP [Q8T]: the protein stability index stood at 2.09.

In the case of SQVSMWDARWQDHQPLLPITDVP [Q8A], the protein stability index turned out to be 2.03.

SQVSMWDCRWQDHQPLLPITDVP [Q8C]: the protein stability index is 1.37.

On to SQVSMWDQHWQDHQPLLPITDVP [R9H], for which the protein stability index was 3.7.

Consider SQVSMWDQEWQDHQPLLPITDVP [R9E], for which the protein stability index was found to be 3.54.

Take SQVSMWDQAWQDHQPLLPITDVP [R9A]: the protein stability index came out at 1.84.

In the case of SQVSMWDQWWQDHQPLLPITDVP [R9W], the protein stability index stood at 1.93.

Turning to SQVSMWDQDWQDHQPLLPITDVP [R9D], the protein stability index came out at 3.69.

Consider SQVSMWDQNWQDHQPLLPITDVP [R9N], for which the protein stability index was determined as 2.73.

Take SQVSMWDQQWQDHQPLLPITDVP [R9Q]: the protein stability index was found to be 3.39.

For the variant SQVSMWDQCWQDHQPLLPITDVP [R9C], the protein stability index worked out at 2.26.

In the case of SQVSMWDQYWQDHQPLLPITDVP [R9Y], the protein stability index was 2.42.

As for SQRSMWDQRWQDHQPLLPITDVP [V3R], the protein stability index was determined as 2.43.

SQLSMWDQRWQDHQPLLPITDVP [V3L]: the protein stability index turned out to be 2.04.

SQCSMWDQRWQDHQPLLPITDVP [V3C]: the protein stability index was determined as 1.91.

On to SQSSMWDQRWQDHQPLLPITDVP [V3S], for which the protein stability index was found to be 2.84.

Take SQTSMWDQRWQDHQPLLPITDVP [V3T]: the protein stability index was 2.34.

On to SQPSMWDQRWQDHQPLLPITDVP [V3P], for which the protein stability index stood at 2.8.

SQESMWDQRWQDHQPLLPITDVP [V3E]: the protein stability index worked out at 2.9.

Take SQMSMWDQRWQDHQPLLPITDVP [V3M]: the protein stability index was 2.83.

Consider SQHSMWDQRWQDHQPLLPITDVP [V3H], for which the protein stability index came out at 3.28.

For the variant SQNSMWDQRWQDHQPLLPITDVP [V3N], the protein stability index amounted to 2.49.

With SQISMWDQRWQDHQPLLPITDVP [V3I], the protein stability index turned out to be 2.23.

In the case of SQASMWDQRWQDHQPLLPITDVP [V3A], the protein stability index was 3.18.

For SQQSMWDQRWQDHQPLLPITDVP [V3Q], the protein stability index came to 3.47.

With SQVSMWDQRWQDHQPLLPLTDVP [I19L], the protein stability index came out at 2.03.

Regarding SQVSMWDQRWQDHQPLLPMTDVP [I19M], the protein stability index is 2.62.

As for SQVSMWDQRWQDHQPLLPQTDVP [I19Q], the protein stability index was found to be 2.87.

As for SQVSMWDQRWQDHQPLLPATDVP [I19A], the protein stability index amounted to 2.67.

With SQVSMWDQRWQDHQPLLPSTDVP [I19S], the protein stability index came out at 3.

As for SQVSMWDQRWQDHQPLLPGTDVP [I19G], the protein stability index amounted to 3.67.

For the variant SQVSMWDQRWQDHQPLLPRTDVP [I19R], the protein stability index came to 3.17.

Turning to SQVSMWDQRWQDHQPLLPDTDVP [I19D], the protein stability index was 4.17.

Turning to SQVSMWDQRWQDHQPLLPTTDVP [I19T], the protein stability index came out at 3.03.

Regarding SQVSMWDQRWQDHQPLLPPTDVP [I19P], the protein stability index was 3.04.

On to SQVSCWDQRWQDHQPLLPITDVP [M5C], for which the protein stability index came out at 1.52.

Regarding SQVSPWDQRWQDHQPLLPITDVP [M5P], the protein stability index came out at 3.15.

For the variant SQVSRWDQRWQDHQPLLPITDVP [M5R], the protein stability index was determined as 3.34.

On to SQVSIWDQRWQDHQPLLPITDVP [M5I], for which the protein stability index came out at 1.98.

Consider SQVSLWDQRWQDHQPLLPITDVP [M5L], for which the protein stability index is 2.77.

SQVSSWDQRWQDHQPLLPITDVP [M5S]: the protein stability index came out at 2.5.

As for SQVSYWDQRWQDHQPLLPITDVP [M5Y], the protein stability index was determined as 2.17.

As for SQVQMWDQRWQDHQPLLPITDVP [S4Q], the protein stability index was 4.05.

As for SQVHMWDQRWQDHQPLLPITDVP [S4H], the protein stability index worked out at 1.74.

Turning to SQVIMWDQRWQDHQPLLPITDVP [S4I], the protein stability index was determined as 2.42.

For SQVEMWDQRWQDHQPLLPITDVP [S4E], the protein stability index turned out to be 3.8.

As to SQVWMWDQRWQDHQPLLPITDVP [S4W], the protein stability index is 2.01.

In the case of SQVDMWDQRWQDHQPLLPITDVP [S4D], the protein stability index came out at 2.58.

Consider SQVSMWDQRWQQHQPLLPITDVP [D12Q], for which the protein stability index came to 2.06.

In the case of SQVSMWDQRWQPHQPLLPITDVP [D12P], the protein stability index was found to be 1.78.

SQVSMWDQRWQIHQPLLPITDVP [D12I]: the protein stability index worked out at 1.75.

On to SQVSMWDQRWQEHQPLLPITDVP [D12E], for which the protein stability index came out at 2.15.

Regarding SQVSMWDQRWQCHQPLLPITDVP [D12C], the protein stability index stood at 1.56.

Consider SQVSMWDQRWQAHQPLLPITDVP [D12A], for which the protein stability index was determined as 2.31.

For SQVSMWDQRWQKHQPLLPITDVP [D12K], the protein stability index is 1.71.

As to SQVSMWDQRWVDHQPLLPITDVP [Q11V], the protein stability index came to 2.25.

Turning to SQVSMWDQRWNDHQPLLPITDVP [Q11N], the protein stability index is 2.74.

On to SQVSMWDQRWMDHQPLLPITDVP [Q11M], for which the protein stability index came out at 2.06.

As to SQVSMWDQRWEDHQPLLPITDVP [Q11E], the protein stability index turned out to be 3.38.

In the case of SQVSMWDQRWIDHQPLLPITDVP [Q11I], the protein stability index turned out to be 3.03.

Turning to SQVSMWDQRWGDHQPLLPITDVP [Q11G], the protein stability index came out at 1.77.

With SQVSMWDQRWWDHQPLLPITDVP [Q11W], the protein stability index was 1.77.

With SQVSMWDQRWPDHQPLLPITDVP [Q11P], the protein stability index came out at 2.1.

On to SQVSMWDQRWHDHQPLLPITDVP [Q11H], for which the protein stability index came out at 1.67.

As for SQVSMWDQRMQDHQPLLPITDVP [W10M], the protein stability index came out at 2.4.

With SQVSMWDQRVQDHQPLLPITDVP [W10V], the protein stability index was 2.17.

Consider SQVSMWDQRRQDHQPLLPITDVP [W10R], for which the protein stability index was 3.03.

For the variant SQVSMWDQRYQDHQPLLPITDVP [W10Y], the protein stability index was 2.55.

As to SQVSMWDQRLQDHQPLLPITDVP [W10L], the protein stability index amounted to 2.51.

In the case of SQVSMWDQRIQDHQPLLPITDVP [W10I], the protein stability index was found to be 2.81.

Regarding SQVSMWDQRKQDHQPLLPITDVP [W10K], the protein stability index is 3.75.

Turning to SQVSMWDQRFQDHQPLLPITDVP [W10F], the protein stability index came to 2.31.
